Substitutions are numbered along the chain they refer to.

The chains are these.
T1: Cyno Semaphorin3A-Sema Domain, TPP-19122 (cynomolgus (Macaca fascicularis), UniProt Q63548 21-569 (rat entry), limits assumed)
T1 construct: produced inhouse
T1 chain: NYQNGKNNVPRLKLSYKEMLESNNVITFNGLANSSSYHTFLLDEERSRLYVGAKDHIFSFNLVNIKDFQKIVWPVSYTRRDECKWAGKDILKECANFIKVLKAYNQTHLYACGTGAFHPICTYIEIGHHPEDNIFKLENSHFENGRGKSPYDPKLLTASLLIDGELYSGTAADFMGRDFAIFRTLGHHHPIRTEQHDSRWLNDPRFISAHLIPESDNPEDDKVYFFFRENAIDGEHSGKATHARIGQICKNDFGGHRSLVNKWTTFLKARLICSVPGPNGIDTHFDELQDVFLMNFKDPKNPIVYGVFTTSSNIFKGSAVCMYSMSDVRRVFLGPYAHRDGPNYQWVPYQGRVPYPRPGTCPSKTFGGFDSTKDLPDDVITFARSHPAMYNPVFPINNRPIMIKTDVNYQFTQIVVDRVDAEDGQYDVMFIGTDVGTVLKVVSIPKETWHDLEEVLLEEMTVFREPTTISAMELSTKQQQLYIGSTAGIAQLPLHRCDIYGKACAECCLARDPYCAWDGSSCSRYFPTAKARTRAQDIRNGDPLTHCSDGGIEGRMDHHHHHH

T2: Human Semaphorin3A-Sema Domain, TPP-19068 (human, UniProt Q14563 21-569)
T2 construct: produced inhouse in HEK293-6E; also called human monovalent Sema3A domain
T2 sequence: T1 chain with N61D, R205K, P213S, I303V, I396M, M402V, H450Y, T468A, I489V, S521A

B1: TPP-23345 (antibody, human IgG4 S228P, lambda, V domains shown)
VH: EVQLLESGGGLVQPGGSLRLSCAASGFTFSSYAMSWVRQAPGKGLEWVSAIGYGGDTYYADSVKGRFTISRDNSKNTLYLQMNSLRAEDTAVYYCARRDDYTSRDAFDYWGQGTLVTVSS
VL: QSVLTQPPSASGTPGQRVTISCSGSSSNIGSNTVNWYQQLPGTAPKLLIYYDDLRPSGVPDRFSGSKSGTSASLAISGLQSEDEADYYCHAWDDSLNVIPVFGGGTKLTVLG
B2: TPP-15370 (antibody, human IgG1, lambda, V domains shown)
VH: B1 VH with A33G, S35H, Y53T, K64M, Y109V
VL: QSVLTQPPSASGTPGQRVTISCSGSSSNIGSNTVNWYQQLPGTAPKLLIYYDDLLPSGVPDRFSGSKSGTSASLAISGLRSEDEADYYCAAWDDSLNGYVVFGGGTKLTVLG
notes: human IgG1; also called IgG1, hit from panning; parental mAb
B3: TPP-23346 (antibody, human IgG4 S228P, lambda, V domains shown)
VH: B1 VH with S30Y, S35L, Y53T
VL: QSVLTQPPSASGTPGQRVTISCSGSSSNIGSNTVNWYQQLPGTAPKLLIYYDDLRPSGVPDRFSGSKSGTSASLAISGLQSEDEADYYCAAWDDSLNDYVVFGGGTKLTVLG
B4: TPP-17755 (antibody, human IgG1, lambda, V domains shown)
VH: EVQLLESGGGLVQTGGSLRLSCAASGFTFSDYAMSWVRQAPGKGLEWVSWIYYDSGSKYYADSVKGRFTISRDNSKNTLYLQMNSLRAEDTAVYYCAKLNGDFDYWGQGTLVTVSS
VL: QSVLTQPPSASGTPGQRVTISCSGSSSNIGNNDVSWYQQLPGTAPKLLIYADSHRPSGVPDRFSGSKSGTSASLAISGLRSEDEADYYCGAWDSSLSGYVFGGGTKLTVLG
notes: also called Samsung; Samsung Prior Art F11
B5: TPP-15374 (antibody, human IgG1, lambda, V domains shown)
VH: EVQLLESGGGLVQPGGSLRLSCAASGFTFSSYEMNWVRQAPGKGLEWVSGISWNSGSIGYADSVKGRFTISRDNSKNTLYLQMNSLRAEDTAVYYCARSGYSSSWFDPDFDYWGQGTLVTVSS
VL: QSVLTQPPSASGTPGQRVTISCTGSSSNIGAGYDVHWYQQLPGTAPKLLIYGNSNRPSGVPDRFSGSKSGTSASLAISGLRSEDEADYYCSSYAGSNPYVVFGGGTKLTVLG
notes: as for B2
B6: TPP-30792 (antibody, human IgG1, lambda, V domains shown)
V domain 1: EVQLLESGGGLVQPGGSLRLSCAASGFTFRSYAVHWVRQAPGKGLEWVSSTEGSGVGTSYTDSVKGRFTISRDNSKNTLYLQMNSLRAEDTAVYYCARMLGGGNPLDYLDYWGQGTLVTVSS
V domain 2: QSVLTQPPSASGTPGQRVTISCSGSSSNLGEGYDVHWYQQLPGKAPKLLIYYSDFRPSGVSDRFSGSKSGTSASLAISGLQSEDEADYYCAAWDDSLSSQVFGGGTQVTVLG
notes: IgG1; prior art, WO 2020/261281; also called 3H4 Univ Ramot; 3H4 (Ramot) Clon I
B7: TPP-11489 (antibody, human IgG1, lambda)
heavy: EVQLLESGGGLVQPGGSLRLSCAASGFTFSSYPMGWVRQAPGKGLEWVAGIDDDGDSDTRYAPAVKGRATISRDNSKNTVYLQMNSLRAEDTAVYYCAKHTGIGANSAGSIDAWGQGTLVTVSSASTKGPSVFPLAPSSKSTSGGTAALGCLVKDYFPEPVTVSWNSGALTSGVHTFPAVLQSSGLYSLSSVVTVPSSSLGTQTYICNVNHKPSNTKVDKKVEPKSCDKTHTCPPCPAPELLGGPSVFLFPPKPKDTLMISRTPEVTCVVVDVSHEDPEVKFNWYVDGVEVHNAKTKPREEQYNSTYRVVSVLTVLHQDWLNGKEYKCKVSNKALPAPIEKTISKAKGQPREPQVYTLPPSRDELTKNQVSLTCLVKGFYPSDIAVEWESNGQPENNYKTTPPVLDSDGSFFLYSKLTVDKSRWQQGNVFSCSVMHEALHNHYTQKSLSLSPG
light: SYELTQPPSVSVSPGQTARITCSGGGSYTGSYYYGWYQQKPGQAPVTVIYYNNKRPSDIPERFSGSLSGTTNTLTISGVQAEDEADYYCGSADNSGDAFGTGTKVTVLGQPKAAPSVTLFPPSSEELQANKATLVCLISDFYPGAVTVAWKADSSPVKAGVETTTPSKQSNNKYAASSYLSLTPEQWKSHRSYSCQVTHEGSTVEKTVAPTECS
notes: human IgG1; also called Chiome; Chiome Prior Art (hIgG1)

In the first assay the target is T3, Human Semaphorin3A-Fc (R&D Systems), TPP-13211 (human).
T3 construct: R&D Systems 1250-S3; also called recombinant human Sema3A-Fc chimera
T3 sequence (chain, as listed by the source limits assumed): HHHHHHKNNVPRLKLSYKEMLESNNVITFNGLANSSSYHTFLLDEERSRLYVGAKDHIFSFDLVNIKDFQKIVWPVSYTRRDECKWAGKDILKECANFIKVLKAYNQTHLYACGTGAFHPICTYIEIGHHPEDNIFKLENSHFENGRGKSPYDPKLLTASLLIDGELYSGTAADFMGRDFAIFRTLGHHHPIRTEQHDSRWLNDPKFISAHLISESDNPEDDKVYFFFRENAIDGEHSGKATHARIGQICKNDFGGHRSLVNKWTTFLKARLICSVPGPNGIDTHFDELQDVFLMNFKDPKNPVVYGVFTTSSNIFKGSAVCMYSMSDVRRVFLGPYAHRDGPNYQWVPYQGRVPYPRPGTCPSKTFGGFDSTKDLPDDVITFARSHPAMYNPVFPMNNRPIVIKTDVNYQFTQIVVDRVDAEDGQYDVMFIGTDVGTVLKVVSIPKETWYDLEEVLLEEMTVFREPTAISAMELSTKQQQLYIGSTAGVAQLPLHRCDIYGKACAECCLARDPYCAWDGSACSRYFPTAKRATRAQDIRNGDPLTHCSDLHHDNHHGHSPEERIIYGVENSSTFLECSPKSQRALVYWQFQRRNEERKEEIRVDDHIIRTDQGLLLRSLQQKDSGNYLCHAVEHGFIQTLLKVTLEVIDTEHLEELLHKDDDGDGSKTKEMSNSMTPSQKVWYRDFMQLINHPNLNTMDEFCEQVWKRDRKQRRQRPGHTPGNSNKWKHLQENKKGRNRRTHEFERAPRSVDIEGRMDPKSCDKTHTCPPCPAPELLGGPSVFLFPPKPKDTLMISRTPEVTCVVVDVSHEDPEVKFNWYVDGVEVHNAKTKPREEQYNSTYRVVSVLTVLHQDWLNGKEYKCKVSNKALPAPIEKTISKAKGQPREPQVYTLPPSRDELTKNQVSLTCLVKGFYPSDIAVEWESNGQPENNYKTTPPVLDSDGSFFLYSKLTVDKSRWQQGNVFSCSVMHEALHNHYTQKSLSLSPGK
Briefly: competition ELISA on coated TPP-13211, competitor biotinylated TPP-15370. The protocol: For screening in a competition ELISA setup, human Sema3a (TPP-13211) was coated onto 384-well plates (Greiner bio-one, 781077) with a concentration of 0.5 μg/ml in coating buffer (Carbonate-Basis pH 9.6, Candor 121125) over night at 10° C. After washing the plates 3 times with 50 μl PBS 0.05% Tween the plates were blocked with 50 μl Smart Block® (Candor 113500) for 1 h at 20° C. and washed again 3 times as described.
Subsequently, 20 μl of pre-mixed antibody solution was added to the plates and incubate for 18 h at 10° C. […] The total concentration of the added antibody solution was 0.25 μg/ml. During the incubation time the antibodies bound to the plates in a competitive manner as they compete for the same epitope on the human Sema3A protein.
After subsequent washing with 50 μl PBS 0.05% Tween for 3 times, 20 μl of a Streptavidin-HRP solution (R&D Systems, DY998, 1:200 in PBS 0.05% Tween 10% Smart Block) were added and incubated for 1 h and 20° C. followed by subsequent washing 3 times with 50 μl PBS 0.05% Tween and addition of 20 μl Amplex Red solution (Invitrogen A12222, 1:1000 in NaP-buffer 50 mM pH7.6 with 1:10000 of 30% H2O2). After a final incubation for 20 min at 20° C. the signal was determined using an emission wavelength of 595 nm and excitation of 530 nm.
A general note: ELISA stands for enzyme-linked immunosorbent assay.
B1: the “VAL norm to TPP-9809 (1 to 1 ratio)” value came out at 0.27 and the “VAL norm to TPP-9809 (1 to 5 ratio)” value was 0.08.
The corresponding values for B2 are 0.67 and 0.54.
The corresponding values for B3 are 0.22 and 0.13.

The target in another assay is T3, Human Semaphorin3A-Fc (R&D Systems), …. Kind of assay: cell-based or functional assay.
On to B4, for which the “EC50 [nM], MCM assay” value amounted to 11.3 nM.
Still for that read-out and setting: then B1, with 0.93 nM.
Still for that read-out and setting: as for B2, the figure is 4.13 nM.
As for B3, the “EC50 [nM], MCM assay” value came out at 1.27 nM.
For the molecule B5, the “EC50 [nM], MCM assay” value turned out to be 5.07 nM.

A further assay concerns the target T1, Cyno Semaphorin3A-Sema Domain, TPP-19122. Kind of assay: SPR, captured antibody, Sema3A domain analyte. As to the method: (§1) To assess the binding kinetics and affinity of anti-Sema3A antibodies as well as their species cross-reactivity profile, binding assays were conducted using surface plasmon resonance (SPR). Binding assays were performed on a Biacore T200 instrument or on a Biacore 8K+ instrument (Cytiva) at 25° C. using assay buffer HBS P+, 300 mM NaCl, 0.75 mM CaCl₂, 2.5 mM MgCl₂, 1 mg/ml BSA, 0.05% NaN₃. Antibodies were captured either via anti-human Fc IgGs (“Human antibody capture kit”, Order No. BR100839, Cytiva) or in case of Fc-tagged analytes by anti-human Fab IgGs (“Human Fab capture kit”, Order No. 28958325, Cytiva) covalently amine coupled to a Series S CM5 sensor chip (Cytiva). The amine coupling was carried out according to the manufacturer's instructions using 1-ethyl-3-(3-dimethylaminopropyl) carbodiimide hydrochloride (EDC), N-hydroxysuccinimide (NHS) and ethanolamine HCl, pH 8.5 (“Amine Coupling Kit” BR-1000-50, Cytiva.). For phage display hits Fc-tagged human and mouse Sema3A was used as analytes in a concentration range from 1.56-200 nM. Human, mouse, cynomolgus, rat, dog and pig monovalent Sema3A domain were used as analytes in a concentration series from […] in multi cycle kinetics mode or in 100 nM for binding analysis only. The sensor surface was regenerated with glycine pH 2.0 after each antigen injection. Obtained sensorgrams were double referenced (subtraction of reference flow cell signal and buffer injection) and were fitted to a 1:1 Langmuir binding model to derive kinetic data using the Biacore T200 Evaluation software.
Turning to B4, the dissociation constant (Kd) worked out at 14 nM.
For B1, the affinity, expressed as Kd, was 0.062 nM.
In turn, B2 came in with a Kd of 40 nM.
Consider B3, for which the affinity, expressed as Kd, was 0.061 nM.
Same read-out and setting: then B5, with 46 nM.
As for B6, the binding result is on record as “no binding”.
Take B7: the Kd is 63 nM.

For another assay, the target named is T2, Human Semaphorin3A-Sema Domain, …. Briefly: SPR, captured antibody, Sema3A domain analyte. The protocol: as §1
Background: Surface plasmon resonance follows binding to a sensor surface in real time, without labels.
B4 had a Kd of 6.9 nM.
For the molecule B1, the Kd was found to be 0.065 nM. Compared with the last molecule, the Kd is about 110-fold lower.
B2 displayed a Kd of 10 nM.
The same measure, in the same setting: then B3, with 0.072 nM.
As to B5, binding was characterised by a dissociation constant (Kd) of 15 nM.
For B6, the binding result is recorded as “no binding”.
For B7, the Kd came to 73 nM.

A word on the Kd: it is a measure of binding affinity in units of concentration. The low end stands for higher affinity, the high end for lower affinity.

(Values after patent US20240254222A1 (Bayer, published 2024).)
